Columns and labels:
[1] = target: T1, SARS-CoV-2 nucleocapsid N-terminal RNA-binding domain (NTD) (SARS-CoV-2, UniProt P0DTC9 46-174); test: EMSA competition; vs 32P-probe RNA; n=4; details: protein: recombinant; tags: His-tag (pET-15b)
[2] = target: T1, SARS-CoV-2 nucleocapsid N-terminal …; test: EMSA; 800 ng NTD, 5 ng RNA; details: protein: recombinant; tags: His-tag (pET-15b); label: 32P-CTP internal
[3] = target: SARS-CoV-2 nucleocapsid protein full length (NP) (SARS-CoV-2, UniProt P0DTC9 1-419)
[4] = target: T1, SARS-CoV-2 nucleocapsid N-terminal …; test: EMSA competition; vs 32P-probe RNA; n=6; details: protein: recombinant; tags: His-tag (pET-15b)
[5] = target: T1, SARS-CoV-2 nucleocapsid N-terminal …; test: EMSA competition; vs 32P-probe RNA; n=3; details: protein: recombinant; tags: His-tag (pET-15b)
[6] = target: T1, SARS-CoV-2 nucleocapsid N-terminal …; test: EMSA competition; vs 32P-probe RNA; n=7; details: protein: recombinant; tags: His-tag (pET-15b)

GGGGGG (ssRNA) [G6] showed an IC50 [1] of 0.62 ± 0.07 µM.

GGGCGAGGCCACGCGGAGUACGAUCGAGUGUACAG (ssRNA) [32P-probe RNA (T7 transcript)]: binds [2].

CGAGGCCACGCGGAGUACGAUCGAGUGUACAG (ssRNA) [FITC-probe RNA (32-base)]: binds [3].

Work on CCAGCG (ssRNA) [mIn-1 (mIn-1-1)] yielded an IC50 [4] of 3.48 ± 1.46 µM.

For AAAAAA (ssRNA) [A6], the IC50 [5] was 22.9 ± 16.4 µM.

In the case of CCGGCG (ssRNA) [In-1], the IC50 [6] is reported as 34.3 ± 27.8 µM.

GGGGGGGGGGGG (ssRNA) [G12]: binds [3].

From publication PMC11033527, “Inhibition of SARS-CoV-2 nucleocapsid protein–RNA interaction by guanosine oligomeric RNA”
